Measured values from publication PMC11077940.
Read-outs that look alike come from different tables or passages of the source.

Tests used:
[1] = biological target: ATP hydrolysis-deficient DctD, DctD_(H216R), prepared as a dephosphorylated form (d-DctD_(H216R)) (Vibrio vulnificus); assay: SEC; d-DctD_(H216R) (alkaline phosphatase-treated) and d-IIA^Glc in 50 mM Tris-HCl pH 8.0, 20 mM KCl, 50 mM MgCl2, 100 mM NaCl applied to Superdex 200 Increase 10/300 GL; fractionated multimers used for the ATPase assay
[2] = biological target: ATP hydrolysis-deficient DctD, DctD_(H216R), prepared as a dephosphorylated form (d-DctD_(H216R)) (Vibrio vulnificus); assay: as above; remark: listed apart in the source
[3] = biological target: phosphorylation-deficient DctD (DctD_(D57Q)) of Vibrio vulnificus (Vibrio vulnificus); assay: SEC; GPC of mixtures of d-IIA^Glc and DctD_(D57Q) (20 µM each; also 5 µM + 20 µM and 20 µM + 5 µM); Superdex 200 Increase 10/300 GL, running buffer 50 mM Tris-HCl pH 8.0, 20 mM KCl, 50 mM MgCl2, 300 mM NaCl; fractions analysed by SDS-PAGE with densitometry against known amounts of each protein
[4] = biological target: phosphorylation-deficient DctD (DctD_(D57Q)) of Vibrio vulnificus (Vibrio vulnificus); assay: SEC; GPC of recombinant DctD_(D57Q) alone; Superdex 200 Increase 10/300 GL, running buffer 50 mM Tris-HCl pH 8.0, 20 mM KCl, 50 mM MgCl2, 300 mM NaCl, 0.4 mL/min; size from a regression of standard proteins

Substance: ATP hydrolysis-deficient DctD, DctD_(H216R), prepared as a dephosphorylated form (d-DctD_(H216R)) (natural protein)
- stoichiometry N [1]: 2
- stoichiometry N [2]: 12

Substance: dephosphorylated form of the glucose-specific enzyme IIA (d-IIA^Glc) (natural protein)
- stoichiometry N [3]: 1 molar ratio

Substance: phosphorylation-deficient DctD (DctD_(D57Q)) of Vibrio vulnificus (natural protein)
- stoichiometry N [4]: 2
